Laboratory results published in patent US20240084004A1.

B1: Murine 3B6 (mouse anti-canine PD-1 monoclonal antibody) (antibody, V domains shown)
VH: QIQLVQSGPELKKPGETVKISCKASGYTFTTYGMSWVKQAPGKGLKWMGWINIYSGIPTYADDFKGRFAFSLETSASTAYLQIDNLKNEDTATYFCARFDGPDYWGQGTTLTVSS
VL: DIVMTQSPSSLAVSVGRKVTMSCKSSQSLLNSVNQKNYLAWYQQKPGQSPKVLVYFASARVSGVPDRFIGSGSGTDFTLAISSVQAEDLTTYFCQQYFSTPLTFGAGTKLELK
B2: Murine 2H9 (mouse anti-canine PD-1 monoclonal antibody) (antibody, V domains shown)
VH: EVQLQQSVAELVRPGASVKLSCTASGFNIKNTYMHWIKQRPEQGLEWIGRIAPANVDTKYAPKFQGKATITADTSSNTAYMQLSTLTSEDTAIYYCVLIYYDYDGDIDVWGTGTTVTVSS
VL: DIQMNQSPSSLSASLGDTITITCHASQNINVWLSWYQQRPGNIPKLLIYKASHLHTGVPSRFSGSGSGTGFTLTISSLQPEDIATYYCQQGQSWPLTFGAGTKLELK

Experiments:
[1] = target: T1, canine PD-1 (canine Programmed Death Receptor 1) antigen (canine); assay: SPR (Biacore T200), canine PD-1 immobilized by amine coupling, antibody as analyte, 1:1 fit
T1 sequence: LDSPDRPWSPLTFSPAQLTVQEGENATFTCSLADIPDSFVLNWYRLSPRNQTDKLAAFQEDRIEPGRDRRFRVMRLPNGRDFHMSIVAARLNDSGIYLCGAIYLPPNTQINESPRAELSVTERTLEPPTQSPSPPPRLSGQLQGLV

[2] = target: T1, canine PD-1 (canine Programmed Death Receptor 1) antigen (canine); assay: SPR (Biacore T200), canine PD-1 immobilized by amine coupling, antibody as analyte, 1:1 fit; off-rate below detection limit

| Binder | Kd [1] [nM] | koff [1] [s⁻¹] | kon [1] [M⁻¹ s⁻¹] | Kd [2] [nM] | koff [2] [s⁻¹] |
| --- | --- | --- | --- | --- | --- |
| B1 | 2 | 3.4e-05 | 18000 |  |  |
| B2 |  |  | 23000 | < 0.2 | < 5e-06 |
